For assay [1], the target named is two-domain (2D) soluble CD4 (amino acids 1 to 183) (human). The experiment in a line: ELISA; hybridoma culture supernatants diluted 1:1 on solid-phase 2D-CD4, gp120 (Ba-L) or the 2D-CD4/gp120 (Ba-L) complex; values qualitative. A general note: In an ELISA, binding on a coated surface is turned into a signal by an enzyme label.
The target of assay [2] is 2D-CD4-gp120 (Ba-L) complex (human | HIV-1 isolate Ba-L). Described as above.

B1: MAb DB81 (antibody, V domains shown)
VH: EVQLQQSGPELVKPGASVKISCKASGYSFTDYTMLWVKQSHGKSLEWIGNINPYYDTTTYNLNFKGKATMTVDKSSSTAYMQLNSLTSEDSAVYYCAREGDYGHPFAYWGQGTLVTVSS
VL: DIVMTQSHKFMSTSVGDRVSITCKASQDVSTTVAWYQQKPGQSPKLLIYSASYRYTGVPDRFTGSGSGTDFTFTISSVQAEDLAVYYCQQHYSTPPTFGGGTKLEIR
In turn, B1 returned a Binding to CD4 (ELISA reading) in assay [1] of 1.23. In assay [2], the Binding to CD4-gp120 (ELISA reading) came out at 2.
